According to patent US20240043504A1 (published 2024):

Molecular target: SARS-COV-2 RBD extracellular domain expressed with a C-terminal mouse IgG2a (SARS-COV-2 RBD-mFc) (SARS-CoV-2)
Test: SPR, captured mAb, RBD-mFc in solution, 37 C

Binder | Kd | t½ | koff | kon
mAb11006 (antibody, V domains shown) VH: EVQLVESGGGLVQPGGSLRLSCAASGFIVSRNYMSWVRQAPGKGLEWVSVIYSGGSTFYADSVKGRFTISRHNSKNTLYLQMNSLKAEDTAVYYCARELRGYFDYWGQGTLVTVSS VL: DIQLTQSPSFLSASVGDRVTITCWASQGISSYLAWYQQKPGKAPKLLIYAASTLQSGVPSRFSGSGSGTEFTLTISSLQPEDFATYYCQLLNSYPYTFGQGTKLEIKR | 0.197 nM | 151 min |  | 
mAb11008 (antibody, V domains shown) VH: EVQLVESGGGLVQPGGSLRLSCAASGFTVSSNYMTWVRQAPGKGLEWVSVIYSGGSTFYADSVKGRFTISRHNSENTLYLQMNSLRAEDTAVYYCARDLAAAGTDYWGQGALVTVSS VL: DIQLTQSPSFLSASVGDRVTITCWASQGISSYLAWYQQKPGKAPKLLIYAASTLQSGVPSRFSGSGSGTEFTLTISSLQPDDFATYYCQHLNSYLYTFGQGTKLEIKR | 0.872 nM | 28.5 min | 0.000405 s⁻¹ | 464000 M⁻¹ s⁻¹
mAb10966 (antibody, V domains shown) VH: EVQLVESGGGLVQPGGSLRLSCAASGLTVSSNYMSWVRQAPGKGLEWVSVIYSGGSTFYADSVKGRFTISRDNSKNTLYLQMNSLRPEDTAVYYCAREGRIAATGYGMDVWGQGTTVTVSS VL: not shown | 0.0405 nM | 116 min |  | 
mAb10989 (antibody, V domains shown) VH: QVQLVQSGAEVKKPGASVKVSCKASGYIFTGYYMHWVRQAPGQGLEWMGWINPNSGGANYAQKFQGRVTLTRDTSITTVYMELSRLRFDDTAVYYCARGSRYDWNQNNWFDPWGQGTLVTVSS VL: QSALTQPASVSGSPGQSITISCTGTSSDVGTYNYVSWYQQHPGKAPKLMIFDVSNRPSGVSDRFSGSKSGNTASLTISGLQAEDEADYYCSSFTTSSTVVFGGGTKLTVLG |  | 31.6 min |  | 
mAb11004 (antibody, V domains shown) VH: QVQLVESGGGVVQPGRSLRLSCVASGFTFSIYGMDWVRQAPGKGLEWVAVISYDGSNKYYADSVKGRFTISRDNSKNTLYLQMNSLRPEDTAVYYCAKDREAAADAFDIWGQGTMVTVSS VL: DIQMTQSPSSVSASVGDRVTITCRASQGISSWLAWYQQKPGKAPKLLIYAASSLHSGVPSRFSGSGSGTDFTLTISSLQPEDFATYYCQQANSFRLTFGGGTKVEIKR | 0.117 nM | 97.9 min | 0.000118 s⁻¹ | 1.01e+06 M⁻¹ s⁻¹
mAb10964 (antibody, V domains shown) VH: QVQLQESGPGLVKPSETLSLTCTVSGGSINNYYWIWIRQPPGKGLEWIGYIYHSGSTNYNPSLKSRVTISVDTSKNQFSLKVSSVTAADTAVYYCANMVRGVYEDDYWGQGTLVTVSS VL: DIQMTQSPSSLSASVGDRVTITCRASQSISNYLNWYQQKPGKAPKLLIFAASSLRSGVPSRFSGSGSGTDFTLTISSLHPEDFATYYCQQNYNTPLTFGPGTKVDIKR |  | 91.7 min |  | 
mAb10957 (antibody, V domains shown) VH: EVQLVESGGGLVQPGGSLRLSCAASGVTVSSNYMSWVRQAPGKGLEWVSVIYSGGSTFYADSVKGRFTISRDNSKNTLFLQMNSLRIEDTAVYYCARDLGPYGMDVWGQGTTVTVSS VL: DIQLTQSPSFLSASVGDRVTITCRASQGISSYLAWYQQKPGKAPKLLIYAASTLQSGVPSRFSGSGSGTQFILTISSLQPEDFATYYCQQLNSYPGFTFGPGTKVDIKR | 0.0463 nM | 161 min |  | 
mAb10971 (antibody, V domains shown) VH: EVQLVESGGGLIQPGGSLRLSCAASGVTVSSNYMSWVRQAPGKGLEWVSVIYSGGSTFYSDSVKGRFSISRDNSKNTLYLQMNSLRAEDTAVYYCARDLYYYGMDVWGQGTTVTVSS VL: DIQLTQSPSFLSASVGDRVTITCRASQGISTYLAWYQQKPGKAPKLLIYAASTLQSGVPSRFSGSGSGTEFTLTISSLQPEDFATYYCQQLDSYPGLTFGGGTKVEIKR | 0.0397 nM | 123 min | 9.41e-05 s⁻¹ | 2.37e+06 M⁻¹ s⁻¹
mAb11002 (antibody, V domains shown) VH: EVQLVESGGGLVQPGGSLRLSCAASGFTVSSNYMSWVRQAPGKGLEWVSVIYSGGSTFYADSVKGRFTISRHNSKNTLYLQMNSLRAEDTAVYYCAREGYGMDVWGQGTTVTVSS VL: not shown | 32.6 nM | 0.7 min |  | 
mAb10939 (antibody, V domains shown) VH: EVQLVESGGGLVQPGGSLRLSCAASGLTVSSNYMNWVRQVPGKGLEWVSVIYSGGSKFYVDSVKGRFTISRHNSKNTLYLQMNSLRPEDTAVYYCTRDAQYYGMDVWGQGTTVTVSS VL: DIQMTQSPSSLSASVGDRVTITCRASQSISTYLHWYQQKPGEAPKLLIYAASSLQSGVPSRFSGSGSGTDFTLTISSLQPEDFATYYCQQSYSTPPEIFGQGTKLEIKR | 0.155 nM | 70 min | 0.000165 s⁻¹ | 1.06e+06 M⁻¹ s⁻¹
mAb10998 (antibody, V domains shown) VH: EVQLVESGGGLVHPGGSLRLSCAASGLTVSSNYMSWVRQAPGKGLEWVSVIYSGGSTYYADSVKGRFTISRHNSKNTLFLQMNSLRAEDTAVYYCARDRPITGTTLDVWGQGTTVTVSS VL: DIQMTQSPSSLFASVGDRVTITCRASQSISSYLNWYQQKPGKAPKLLIYAASSLQSGVPSRFSGSGSGTDFTLTISSLQPEDFAFYYCQQTYSTPPITFGQGTRLEIKR | 22.4 nM | 0.6 min | 0.0197 s⁻¹ | 879000 M⁻¹ s⁻¹
mAb10956 (antibody, V domains shown) VH: EVQLVESGGGLVQPGGSLRLSCAASGLTVSSNYMSWVRQAPGKGLEWVSVIYSGGSTFYADSVKGRFTISRDNSKNTLYLQMNSLRAEDTAVYYCARDLIKYGMDVWGQGTTVTVSS VL: not shown | 0.158 nM | 33.8 min |  | 
mAb10982 (antibody, V domains shown) VH: EVQLVESGGGLVQPGGSLRLSCAASGLTVSSNYMSWVRQAPGKGLEWVSVIYSGGTTYYADSVKGRFTISRHNSKNTLSLQMNSLRAEDTAVYYCARGEGANYYGMDVWGQGTTVTVSS VL: QSVLTQPPSVSGAPGQRVTISCTGSSSNIGTGYDVHWYQQLPGTAPKLLIYGNSNRPSGVPDRFSGSKSGTSASLAITGLQAEDEADYYCQSYDSSLSGYVVFGGGTKLTVLG | 0.21 nM | 44.8 min | 0.000258 s⁻¹ | 1.23e+06 M⁻¹ s⁻¹
mAb10985 (antibody, V domains shown) VH: EVQLVESGGGLVQPGRSLRLSCAASGFTFDDYAMHWVRQAPGKGLEWVSGISWNRGSIGYADSVKGRFTISRDNAKNSLYLQMSSLRAEDTALYYCAKDGERWDSVVVPSARNGMDVWGQGTTVTVSS VL: QSVLTQPPSVSGAPGQRVTISCTGSSSNIGAGYDVHWYQQLPGTAPKLLIYGNSNRPSGVPDRFSGSKSGTSASLAITGLQAEDEADYYCQSYDSSLSGSYVFGTGTKVTVLG | 0.0401 nM | 30.8 min |  | 
mAb10986 (antibody, V domains shown) VH: EVQLVESGGGLVQPGGSLRLSCAASEFTVSSNYMSWVRQAPGKGLEWVSVIYSGGSTFYADSVKGRFTISRDNSKNTLYLQMNSLRAEDTAVYYCARALPYGDLHFDYWGQGTLVTVSS VL: QSVLTQPPSVSGAPGQRVTISCTGSSSNIGTGYDVHWYQQLPGTAPKLLIYGNTNRPSGVPDRFSGSKSGTSASLAITGLQAEDEADYYCQSYDSSLSDSYVFGTGTKVTVLG | 0.0126 nM | 200 min |  | 
mAb10965 (antibody, V domains shown) VH: EVQLVESGGGLIQPGGSLRLSCAASVFTVSYNYMSWVRQAPGKGLEWVSVIYSGGSTYYADSVKGRFTISRDNSKNTLYLQMNSLRAEDTAVYYCARALPGWGGSFEYFDYWGQGTLVTVSS VL: not shown | 0.237 nM | 34.2 min |  | 
mAb10969 (antibody, V domains shown) VH: QVQLVESGGGVVQPGRSLRLSCAASGFTFSSYAMHWVRQAPGKGLEWVAVISYDGSNKYYADSVKGRFTISRDNSKNTLYLQMNSLRAEDTAVYYCARDGRTITMVRGVIDDAFDIWGQGTMVTVSS VL: not shown | 0.174 nM | 81.9 min |  | 
mAb10984 (antibody, V domains shown) VH: EVQLVESGGGLVQPGGSLRLSCAASGLTVNRNYMSWVRQAPGKGLEWVSLIYSGGSTYYADSVKGRFTISRDNSKNTLYLQMNSLRLEDTAVYYCARGELGIPYGMDVWGQGTTVTVSS VL: QSVLTQPPSVSAAPGQKVTISCSGSSSNIGNNYVSWYQQLPGTAPKLLIYDNNKRPSGIPDRFSGSKSGTSATLGITGLQTGDEADYYCGTWDSSLSAGVFGGGTKLTVLG | 0.0404 nM | 138 min |  | 
mAb10938 (antibody, V domains shown) VH: EVQLVESGGGLVQPGGSLRLSCAVSGFTVSSNYMSWVRQAPGKGLEWVSLIYSGGSTFYADSVKGRFTISRHNSKNTLYLQMNSLRAEDTAVYYCAREGGYSYDYNYWGQGTLVTVSS VL: DIQMTQSPSSLSASVGDRVTITCQASQDIRNYLNWYQQKPGKAPKLLIYDASNLETGVPSRFSGIGSGTDFTFTISSLQPEDIATYYCQQYDNLPITFGQGTRLEIKR | 0.173 nM | 176 min |  | 
mAb10967 (antibody, V domains shown) VH: EVQLVESGGGLVQPGGSLRLSCAASGFTVSSNYMSWVRQAPGKGLEWVSVIYPGGSTFYADSVKGRFTISRDNSKNTLYLQMNSLRAEDTAVYYCARDQRDFAWGQGTLVTVSS VL: DIQMTQSPSSLSASVGDRVTITCQASQDISNYLNWYQQKPGKAPKLLIYDASNLETGVPSRFSGSGSGTDFTFTISGLQPEDIATYYCQQYDNLPPTFGQGTRLEIKR | 0.0229 nM | 347 min |  | 
mAb10955 (antibody, V domains shown) VH: EVQLVESGGGLVQPGGSLRVSCAASGFTVSRNYMSWVRQAPGKGLEWVSVIYSGGSTFYADSVKGRFTISRDNSKNTLYLQMNSLRAEDTAIYYCARYIPRFDPWGQGTLVTVSS VL: DIQMTQSPSSLSASVGDRVTITCQASQDISNYLNWFQQKPGRAPKLLIYDASNLETGVPSRFSGSGSGTDFTFTISSLQPEDIATYYCQQYDNLPITFGQGTRLEIKR | 0.202 nM | 29.8 min |  | 
mAb10954 (antibody, V domains shown) VH: EVQLVESGGGLVQPGGSLRLSCAASGITVSSNYMSWVRQAPGKGLEWVSLIYSGGSTYYADSVKGRFTISRDNSKNTLYLQMNSLRVEDTAVYYCARDHGMAAAGYNYWGQGTLVTVSS VL: DIQMTQSPSSLSASVGDRVTITCQASQDINKYLNWYQQKPGKAPKLLIYDASNLETGVPSRFSGSGSGTDFTFTINSLQPEDFATYFCQQYDNLPPAFGQGTKVEIKR | 0.0369 nM |  |  | 
